# Results as given in US20170051040A1 (UNIVERSITE PIERRE ET MARIE CURIE PARIS 6, published 2017).
# Non-standard residues stand in square brackets, D forms with d. No end group written: not given here.
# Molecular target: CCR2 on mouse monocytes (mouse, UniProt P51683 1-373)
# Assay: cell-based or functional assay
# CCR2 on mouse monocytes, sequence (P51683 whole entry): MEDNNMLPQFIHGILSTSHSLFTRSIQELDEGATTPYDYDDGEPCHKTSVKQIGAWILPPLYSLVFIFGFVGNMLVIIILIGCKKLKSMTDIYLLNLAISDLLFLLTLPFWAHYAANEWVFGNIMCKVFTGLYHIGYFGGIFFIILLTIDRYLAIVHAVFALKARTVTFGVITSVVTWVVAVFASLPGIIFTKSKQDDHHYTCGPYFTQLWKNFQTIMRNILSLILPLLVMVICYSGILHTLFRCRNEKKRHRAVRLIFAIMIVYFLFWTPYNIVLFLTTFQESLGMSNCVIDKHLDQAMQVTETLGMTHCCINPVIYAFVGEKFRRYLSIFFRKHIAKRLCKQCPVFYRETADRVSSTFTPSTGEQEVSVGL
binder,measurement,value
[dL]G[dT][dF][dL][dK][dC] [ECL1 (C) inverso],"inhibition of migration of mouse monocytes and classical monocytes, IC50",2000 nM
